# Measurements reported in patent US20080125491A1 (ARENA PHARMACEUTICALS, published 2008).
# Like-named read-outs stand apart in the source and are kept apart here.
# T1: HA/V5 double tagged endogenous human FPRL2 (human)
# T1 chain: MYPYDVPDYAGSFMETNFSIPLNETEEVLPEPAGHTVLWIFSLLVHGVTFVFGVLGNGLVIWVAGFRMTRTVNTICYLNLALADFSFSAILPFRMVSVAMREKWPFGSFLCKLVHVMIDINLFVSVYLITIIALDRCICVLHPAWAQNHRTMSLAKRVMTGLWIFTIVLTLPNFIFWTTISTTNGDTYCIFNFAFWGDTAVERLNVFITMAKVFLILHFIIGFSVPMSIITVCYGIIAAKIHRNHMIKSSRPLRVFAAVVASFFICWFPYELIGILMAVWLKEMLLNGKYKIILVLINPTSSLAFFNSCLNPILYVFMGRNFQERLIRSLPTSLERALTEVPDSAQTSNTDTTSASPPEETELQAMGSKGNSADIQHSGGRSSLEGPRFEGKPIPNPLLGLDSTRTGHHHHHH
# Tests used:
# Assay in all cases: cell-based or functional assay
# [1] = biological target: HA/V5 double-tagged endogenous human FPRL1 (human) (UniProt P25090)
# Chain of HA/V5 double-tagged endogenous human FPRL1 (human) (P25090 other isoform, or with tags, fused parts or gaps): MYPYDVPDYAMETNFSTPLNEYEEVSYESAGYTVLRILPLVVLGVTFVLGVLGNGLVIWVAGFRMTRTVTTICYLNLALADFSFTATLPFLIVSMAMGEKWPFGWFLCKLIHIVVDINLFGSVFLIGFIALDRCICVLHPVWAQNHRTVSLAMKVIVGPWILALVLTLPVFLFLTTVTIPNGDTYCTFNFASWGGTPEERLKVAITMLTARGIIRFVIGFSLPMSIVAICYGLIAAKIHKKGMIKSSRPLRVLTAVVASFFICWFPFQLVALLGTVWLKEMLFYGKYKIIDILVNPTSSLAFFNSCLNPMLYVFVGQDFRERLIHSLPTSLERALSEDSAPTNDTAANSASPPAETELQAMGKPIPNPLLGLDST
# [2] = biological target: HA/V5 double-tagged endogenous human FPR (human) (UniProt P21462)
# Chain of HA/V5 double-tagged endogenous human FPR (human) (P21462 other isoform, or with tags, fused parts or gaps): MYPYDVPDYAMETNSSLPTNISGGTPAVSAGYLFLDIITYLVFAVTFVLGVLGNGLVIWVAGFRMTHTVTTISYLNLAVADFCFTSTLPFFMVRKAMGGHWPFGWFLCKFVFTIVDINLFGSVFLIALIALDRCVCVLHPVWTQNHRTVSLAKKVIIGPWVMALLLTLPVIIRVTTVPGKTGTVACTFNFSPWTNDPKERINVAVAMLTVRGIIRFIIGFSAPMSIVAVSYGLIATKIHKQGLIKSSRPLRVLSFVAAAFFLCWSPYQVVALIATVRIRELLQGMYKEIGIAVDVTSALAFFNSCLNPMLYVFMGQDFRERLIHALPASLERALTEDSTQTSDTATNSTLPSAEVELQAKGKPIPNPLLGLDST
# [3] = biological target: HA/V5 double tagged endogenous human FPRL2 (human)
# [4] = biological target: T1, HA/V5 double tagged endogenous human …
"EC50, [35S]GTPγS binding to membranes of transiently transfected CHO cells [1] [nM]",[35S]GTPγS binding to membranes of transiently transfected CHO cells; highest dose without significant activity [2] [µM],"EC50, [35S]GTPγS binding to membranes of transiently transfected CHO cells [3] [nM]","EC50, [35S]GTPγS binding to membranes of transiently transfected CHO cells [4] [nM]",EC50 of Humanin driven pigment aggregation in melanophore (Gi coupling) [4] [nM],Molecule
1500,> 10,72,,,[Gly14]-Humanin (peptide)
,,,~320,~239,MAPRGFSCLLLLTSEIDLPVKRRA [Humanin]
